We go through 10 molecules from patent US20230406935A1 (F STAR THERAPEUTICS, published 2023).

Numbering of substitutions follows the chain as printed. Like-named read-outs stand apart in the source and are kept apart here.

In experiment [1] the target is T1, Human PD-L1 expressed on cells (human, UniProt Q9NZQ7 19-290).
T1 construct: also called cell-surface human PD-L1; hPD-L1
Nature of the experiment: flow cytometry, HEK293 cells overexpressing the target, anti-human Fc 488. The method, then:
(§1) Cell binding assays were performed by incubating Fcabs or mAb² proteins with either control HEK293 cells or HEK293 cells overexpressing hPD-L1 or cynomolgus PD-L1 cells for 1 hour at 4° C. Fcab/mAb binding was subsequently detected using an anti-human Fc 488 detection antibody. Fluorescent signal intensities were measured using a FACS canto.
(In general: A flow cytometer gives signals particle by particle.)

In experiment [2] the target is T2, Cynomolgus PD-L1 expressed on HEK 293 cells (cynomolgus, UniProt Q9NZQ7 19-290 (human entry)).
T2 construct: also called cell-expressed cynomolgus PD-L1
T2 sequence (Q9NZQ7 other isoform, or with tags, fused parts or gaps limits assumed): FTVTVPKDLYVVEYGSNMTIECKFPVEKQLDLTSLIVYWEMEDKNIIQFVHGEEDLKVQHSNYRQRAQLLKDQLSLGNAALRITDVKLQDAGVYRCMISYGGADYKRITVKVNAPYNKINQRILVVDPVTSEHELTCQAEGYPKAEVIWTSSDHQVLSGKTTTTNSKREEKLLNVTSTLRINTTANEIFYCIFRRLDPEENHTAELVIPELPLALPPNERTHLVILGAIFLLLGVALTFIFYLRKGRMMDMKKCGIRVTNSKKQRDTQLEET
The description is as above. The protocol:
as §1

Experiment [3] concerns the target T1, Human PD-L1 expressed on cells. Nature of the experiment: cell-based or functional assay.
The target of experiment [4] is T3, Monomeric cynomolgus PD-L1 (Acro Biosciences PD1-C52H4) (cynomolgus, UniProt Q9NZQ7 19-238 (human entry)).
T3 construct: also called cynomolgus monomeric PD-L1
T3 sequence (Q9NZQ7 other isoform, or with tags, fused parts or gaps limits assumed): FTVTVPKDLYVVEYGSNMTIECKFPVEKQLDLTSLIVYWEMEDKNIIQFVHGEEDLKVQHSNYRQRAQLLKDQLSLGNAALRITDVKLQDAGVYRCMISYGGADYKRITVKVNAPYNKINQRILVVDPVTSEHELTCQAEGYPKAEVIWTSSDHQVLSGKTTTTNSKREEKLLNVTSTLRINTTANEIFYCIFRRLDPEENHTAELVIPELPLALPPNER
Nature of the experiment: SPR Biacore T200, mAb^2 captured by anti-Fab on CM5, monomeric antigen in flow, 1:1 fit. A general note: SPR reads the build-up and loss of mass on a sensor chip optically.

In experiment [5] the target is T4, Monomeric His-tagged human PD-L1 (Acro biosystems PD1-H5229) (human, UniProt Q9NZQ7 19-238).
T4 construct: also called hPD-L1-his; PD-L1-his
T4 sequence (Q9NZQ7 19-238 limits assumed): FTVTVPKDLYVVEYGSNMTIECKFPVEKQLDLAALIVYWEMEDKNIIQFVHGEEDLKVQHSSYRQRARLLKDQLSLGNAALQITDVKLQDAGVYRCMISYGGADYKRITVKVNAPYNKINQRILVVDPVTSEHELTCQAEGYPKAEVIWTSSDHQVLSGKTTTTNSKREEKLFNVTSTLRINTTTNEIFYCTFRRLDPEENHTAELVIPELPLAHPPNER
The description is as above.

Experiment [6] has as its target T4, Monomeric His-tagged human PD-L1 (Acro …). Nature of the experiment: off-rate, binding to hPD-L1, mock mAb^2; instrument not stated.
For experiment [7], the target named is T1, Human PD-L1 expressed on cells. The experiment in a line: cell-based or functional assay. This is another data set of the same source.
The target in experiment [8] is T4, Monomeric His-tagged human PD-L1 (Acro …). Nature of the experiment: off-rate on PD-L1, mock mAb^2; instrument not given.
Experiment [9] addresses T3, Monomeric cynomolgus PD-L1 (Acro …). The experiment in a line: SPR Biacore T200, Fcab captured on protein A chip, monomeric antigen in flow, 1:1 fit.
Experiment [10] deals with T4, Monomeric His-tagged human PD-L1 (Acro …). Described as above.
In experiment [11] the target is T5, Biotinylated hPD-L1-Fc-Avi (human, UniProt Q9NZQ7 19-238). The experiment in a line: cell-based RBA, blocking of hPD-L1-Fc-Avi binding to HEK293 hPD-1 cells. The protocol: (§2) The ability of the Fcabs and mock mAb² to block hPD-1/hPD-L1 and hPD-L1/hCD80 interactions was tested in cell-based Receptor Binding Assays (RBA). […] The mix was incubated for another hour with HEK293 cells overexpressing either hPD-1 or hCD80.
T5 sequence (Q9NZQ7 19-238 limits assumed): as above

Experiment [12] concerns the target T5, Biotinylated hPD-L1-Fc-Avi. The experiment in a line: cell-based RBA, blocking of hPD-L1-Fc-Avi binding to HEK293 hCD80 cells. The protocol: as §2
The target in experiment [13] is T1, Human PD-L1 expressed on cells. Nature of the experiment: cell-based or functional assay. The source holds these as a separate data set.
In experiment [14] the target is T4, Monomeric His-tagged human PD-L1 (Acro …). The experiment in a line: SPR Biacore T200 as Example 5.1, anti-Fab capture, monomeric hPD-L1-his. The method, then: Fcab and mAb² binding to human PD-L1 was assessed by both BIAcore and in a cell binding assay. To measure the affinity of the clones to monomeric hPD-L1-his, the mAb² were captured using an anti-Fab antibody coated on a CM5 chip (GE 28-9582-20 AC) and Fcabs were captured using a Protein A chip (GE 29127556) using a Biacore T200 (GE). To minimize mass transport effects, the capture level was minimized to 200RU and a fast flow rate of 75 μl/min was used. […] The analysis of the data was done using the Biacore T200 evaluation software. Curves subtracted against a blank flow cell and a run with no antigen were analysed using a 1:1 fitting model with no bulk analysis and Rmax analysed locally.
The selected CH3 domain sequences were subcloned and expressed in “mock” (MSL109) mAb² format with the LALA mutation in the CH2 domain, as described in Example 4.2.1, for further screening.

T1 sequence (Q9NZQ7 19-290 limits assumed): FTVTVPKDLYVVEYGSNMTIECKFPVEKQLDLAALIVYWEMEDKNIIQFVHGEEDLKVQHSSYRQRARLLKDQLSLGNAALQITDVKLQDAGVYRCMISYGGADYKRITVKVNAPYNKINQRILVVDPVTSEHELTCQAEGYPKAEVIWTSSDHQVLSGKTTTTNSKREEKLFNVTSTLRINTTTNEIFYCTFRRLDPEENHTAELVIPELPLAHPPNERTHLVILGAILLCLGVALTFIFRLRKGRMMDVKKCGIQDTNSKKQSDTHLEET

B1: FS17-33-288AA/HelD1.3 mock mAb^2 (bispecific antibody, human IgG1, kappa, L234A L235A)
heavy: QVQLQESGPGLVRPSQTLSLTCTVSGSTFSGYGVNWVRQPPGRGLEWIGMIWGDGNTDYNSALKSRVTMLVDTSKNQFSLRLSSVTAADTAVYYCARERDYRLDYWGQGSLVTVSSASTKGPSVFPLAPSSKSTSGGTAALGCLVKDYFPEPVTVSWNSGALTSGVHTFPAVLQSSGLYSLSSVVTVPSSSLGTQTYICNVNHKPSNTKVDKKVEPKSCDKTHTCPPCPAPEAAGGPSVFLFPPKPKDTLMISRTPEVTCVVVDVSHEDPEVKFNWYVDGVEVHNAKTKPREEQYNSTYRVVSVLTVLHQDWLNGKEYKCKVSNKALPAPIEKTISKAKGQPREPQVYTLPPSRDESGYWVSLTCLVKGFYPSDIVVEWESNGEPQYWAKTTPPVLDSDGSFFLYSKLTVSNWRWQIDDFSCSVMHEALHNHYTQKSLSLSPGK
light: DIQMTQSPASLSASVGETVTITCRASGNIHNYLAWYQQKQGKSPQLLVYNAKTLADGVPSRFSGSGSGTQYSLKINSLQPEDFGSYYCQHFWSTPRTFGGGTKLEIKRTVAAPSVFIFPPSDEQLKSGTASVVCLLNNFYPREAKVQWKVDNALQSGNSQESVTEQDSKDSTYSLSSTLTLSKADYEKHKVYACEVTHQGLSSPVTKSFNRGEC
notes: also called F17-33-288AA/HelD1.3; F17-33-288AA/HELD1.3
Take B1: the Kd – broadly, a measure of binding affinity in units of concentration – was determined as 15.2 nM in [1], 7.8 nM in experiment [2], 2 nM in [4] and 1.43 nM in [5]. Moreover, in experiment [3], the “DO11.10 T cell activation assay EC50” value stood at 0.428 nM.

B2: FS17-33-449AA/HelD1.3 mock mAb^2 (bispecific antibody, human IgG1, kappa, L234A L235A)
heavy: QVQLQESGPGLVRPSQTLSLTCTVSGSTFSGYGVNWVRQPPGRGLEWIGMIWGDGNTDYNSALKSRVTMLVDTSKNQFSLRLSSVTAADTAVYYCARERDYRLDYWGQGSLVTVSSASTKGPSVFPLAPSSKSTSGGTAALGCLVKDYFPEPVTVSWNSGALTSGVHTFPAVLQSSGLYSLSSVVTVPSSSLGTQTYICNVNHKPSNTKVDKKVEPKSCDKTHTCPPCPAPEAAGGPSVFLFPPKPKDTLMISRTPEVTCVVVDVSHEDPEVKFNWYVDGVEVHNAKTKPREEQYNSTYRVVSVLTVLHQDWLNGKEYKCKVSNKALPAPIEKTISKAKGQPREPQVYTLPPSRDETGYWVSLTCLVKGFYPSDIAVEWESNGEPQYWAKTTPPVLDSDGSFFLYSKLTVSNWRWQLDDVFSCSVMHEALHNHYTQKSLSLSPGK
light: B1 light
For the molecule B2, the koff (usually the first-order rate constant of dissociation) in experiment [6] was 0.000311 s⁻¹. Besides, the “DO11.10 T cell activation assay EC50” value in experiment [3] came to 0.95 nM. The results for the Kd in experiment [4] and in experiment [5] were 0.9 nM and 0.49 nM, respectively.

B3: FS17-33-451AA/HelD1.3 mock mAb^2 (bispecific antibody, human IgG1, kappa, L234A L235A)
heavy: B2 heavy with T357E
light: B1 light
notes: also called F17-33-451AA/HelD1.3; F17-33-451AA/HELD1.3
In [6], B3 returned an off-rate constant (koff) of 0.000253 s⁻¹. Besides, in [3], the “DO11.10 T cell activation assay EC50” value amounted to 1.03 nM. Further, the Kd in experiment [4] amounted to 0.63 nM; in [5] it was 0.45 nM.

B4: FS17-33-334AA/HelD1.3 mock mAb^2 (bispecific antibody, human IgG1, kappa, L234A L235A)
heavy: B1 heavy with V376A, I417L
light: B1 light
For B4, the koff in [6] stood at 0.000291 s⁻¹; in experiment [8], 0.000372 s⁻¹. Moreover, the “DO11.10 EC50” value in experiment [7] was found to be 0.403 nM. Moreover, the Kd is 8.9 nM in experiment [1], 0.91 nM in [2], 1.9 nM in experiment [4] and 1.45 nM in experiment [5]. In addition, the “DO11.10 T cell activation assay EC50” value in experiment [3] came to 0.934 nM.

B5: FS17-33-296AA/HelD1.3 mock mAb^2 (bispecific antibody, human IgG1, kappa, L234A L235A)
heavy: B1 heavy with I417V
light: B1 light
notes: also called F17-33-296AA/HelD1.3; F17-33-296AA/HELD1.3
B5: the Kd was determined as 2.7 nM in experiment [1] and 2 nM in experiment [2]. In addition, in experiment [3], the “DO11.10 T cell activation assay EC50” value is 1.12 nM.

B6: Fcab FS17-33-289 (designed binder)
chain: TCPPCPAPELLGGPSVFLFPPKPKDTLMISRTPEVTCVVVDVSHEDPEVKFNWYVDGVEVHNAKTKPREEQYNSTYRVVSVLTVLHQDWLNGKEYKCKVSNKALPAPIEKTISKAKGQPREPQVYTLPPSRDESGYWVSLTCLVKGFYPSDIVVEWESNGEPQYWAKTTPPVLDSDGSFFLYSKLTVSNWRWQLDDFSCSVMHEALHNHYTQKSLSLSPGK
As for B6, the Kd in experiment [9] was 0.66 nM; in experiment [10], 0.54 nM; in experiment [1], 1 nM; in experiment [2], 0.44 nM. The EC50 (commonly the midpoint of the concentration-response curve) stood at 10.1 nM in [11] and 9.2 nM in experiment [12].

B7: Fcab FS17-33-288 (designed binder)
chain: B6 chain with L194I
Turning to B7, the Kd in experiment [9] amounted to 2.1 nM; in [10], 1.6 nM; in experiment [1], 2.5 nM; in experiment [2] it was 2.6 nM. Moreover, the EC50 in experiment [11] stood at 2.8 nM; in experiment [12], 0.79 nM.

B8: Fcab FS17-33-296 (designed binder)
chain: B6 chain with L194V
For the molecule B8, the equilibrium dissociation constant (Kd) in [9] was 0.87 nM; in [10], 0.73 nM; in experiment [1] it was 1 nM; in [2] it was 0.5 nM. In addition, the EC50 is 9 nM in [11] and 8.8 nM in [12].

B9: Fcab FS17-33-334 (designed binder)
chain: B6 chain with V153A
As to B9, the Kd in experiment [9] came to 2.18 nM; in [10], 1.93 nM; in [1], 2.06 nM; in experiment [2] it was 0.68 nM. Besides, the EC50 in [11] is 0.99 nM; in experiment [12] it was 0.55 nM.

B10: FS17-33-488AA/MSL109 (bispecific antibody, human IgG1, kappa, L234A L235A)
heavy: EEQVLESGGGLVKPGGSLRLSCAASGFTFSPYSVFWVRQAPGKGLEWVSSINSDSTYKYYADSVKGRFTISRDNAENSIFLQMNSLRAEDTAVYYCARDRSYYAFSSGSLSDYYYGLDVWGQGTTVIVSSASTKGPSVFPLAPSSKSTSGGTAALGCLVKDYFPEPVTVSWNSGALTSGVHTFPAVLQSSGLYSLSSVVTVPSSSLGTQTYICNVNHKPSNTKVDKKVEPKSCDKTHTCPPCPAPEAAGGPSVFLFPPKPKDTLMISRTPEVTCVVVDVSHEDPEVKFNWYVDGVEVHNAKTKPREEQYNSTYRVVSVLTVLHQDWLNGKEYKCKVSNKALPAPIEKTISKAKGQPREPQVYTLPPSRDEEGYWVSLTCLVKGFYPSDIAVEWESNGEPQYWAKTTPPVPDSDGTFFLYSKLTVSNWRWQLGDAFSCSVMHEALRNHYTQKSLSLSPGK
light: DIVMTQSPLSLSVTPGEPASISCRSSQSLLHTNGYNYLDWYVQKPGQSPQLLIYLASNRASGVPDRFSGSGSGTDFTLKISRVETEDVGVYYCMQALQIPRTFGQGTKVEIKRTVAAPSVFIFPPSDEQLKSGTASVVCLLNNFYPREAKVQWKVDNALQSGNSQESVTEQDSKDSTYSLSSTLTLSKADYEKHKVYACEVTHQGLSSPVTKSFNRGEC
For B10, in experiment [13], the “DO11.10 EC50” value was determined as 3.25 nM. Besides, in [14], the Kd was 0.36 nM and the koff was 0.00036 s⁻¹.
